Each block holds one molecule with its values, some of them ahead of it. Positions of bridges follow the written chain, without caps; N, C: chain ends. Residues, ends and D or L forms follow the SMILES beside them. No end group written: not given here.
What was measured:
recombinant human uPAR = biological target: T1, recombinant human uPAR (Homo sapiens, UniProt Q03405); assay: Microtitre plate solid phase ATF-ligand binding test (competition with ATF for uPAR); details: for inhibition of the binding of ATF to uPAR / uPAR binding capacity: 0.6 ng ATF together with 15 μg synthetic peptide per ml, FIG. 2
T1 construct: made in house; host or cells: CHO cells
Procedure: In addition to the flow cytometric analyses, a solid phase ATF-ligand binding test was carried out in order to examine the interactions of synthetic peptides with the uPAR. For this microtitre plates were coated with recombinant human uPAR from CHO cells (Wilhelm et al., FEBS Lett. 337 (1994), 131-134; Magdolen et al., Electrophoresis 16 (1995), 813-816) and the remaining protein-binding sites were saturated with 2% BSA (weight/vol.). After incubation with the samples (0.6 ng ATF together with 15 μg synthetic peptide per ml) and several wash steps, the amount of ATF which had bound to the immobilized uPAR on the microtitre plate was determined using a biotinylated monoclonal mouse antibody against the kringle domain of ATF (No. 377, American Diagnostics, Greenwich, Conn., USA) and subsequent addition of avidin-peroxidase conjugate and 3,3′,5,5′-tetramethylbenzidine/[…] as a substrate for the peroxidase. The presence of synthetic peptides which compete with the ATF binding to uPAR reduces the conversion of the chromogenis substrate.
A series of peptides with variable sequence regions from the receptor binding region of uPA were synthesized and were increasingly shortened at the amino terminus starting with uPA10-32. The microtitre plate solid phase binding test described in 1.4 was used to determine the inhibitory capacity of these peptides.

[1] = Stability of binding activity after long storage in aqueous solution or repeated freeze/thaw cycles; type: physicochemical; details: compared with linear uPA19-31
[2] = biological target: T2, cell surface-associated uPAR (Homo sapiens, UniProt Q03405); assay: Flow cytometry: inhibition of binding of FITC-conjugated pro-uPA to cell surface-associated uPAR on PMA-stimulated U937 cells
T2 construct: After stimulation with PMA the U937 cells expressed considerable amounts of cell surface-associated uPAR; endogenous in cells; host or cells: U937 cells stimulated with PMA
Procedure: The ability of the synthetic peptides to inhibit the uPA/-uPAR interaction was determined by means of flow cytometry on a FACScan flow cytometer (Becton-Dickinson, Heidelberg, Germany) using the human promyeloid cell line U937 as a source of cellular native uPAR (Chuchulowski et al., Fibrinolysis 6, Suppl. 4 (1992), 95-102; Magdolen et al., (1996), supra). The U937 cells were stimulated with […] phorbol-12-myristate-13-acetate (PMA) for 48 h. After stimulation with PMA the U937 cells expressed considerable amounts of cell surface-associated uPAR.
The stimulated cells were treated for 1 min at room temperature with 50 mM glycine HCl, 0.1 NaCl, pH 3.6 in order to dissociate endogenous receptor-bound uPA. Subsequently the acidic buffer was neutralized with 0.5 M HEPES-100 mM NaCl, pH 7.5. The cells were then immediately washed twice with PBS/0.1% bovine serum albumin (BSA) and centrifuged for 10 min at room temperature and 300×g. The cells were resuspended in PBS/0.1% BSA, adjusted to a concentration of 10^6 cells per ml and simultaneously incubated for 45 minutes at room temperature with 16 ng FITC-conjugated pro-uPA and various amounts of the synthetic peptides. Before the analysis, propidium iodide, a fluorescent dye which specifically binds double-stranded DNA, was added to each sample in order to determine the viability of the analysed U937 cells. Damaged, propidium iodide-labelled cells were excluded from the analysis.
For this the purified peptides were analysed by mass spectroscopy, quantified by amino acid analysis and then tested by flow cytometry according to the method described in 1.3 for their ability to inhibit the binding of fluorescent-labelled pro-uPA to the uPA receptor on U937 cells.

[3] = biological target: T3, cell surface-associated uPA receptor (uPAR) on PMA-stimulated human U937 cells (human, UniProt Q03405 23-305); assay: flow cytometry, competition with FITC-pro-uPA on U937 cells
T3 construct: whole, on cells; also called urokinase receptor; cellular native uPAR
Procedure: (§1) The U937 cells were stimulated with […] phorbol-12-myristate-13-acetate (PMA) for 48 h.
(§2) Subsequently the acidic buffer was neutralized with 0.5 M HEPES-100 mM NaCl, pH 7.5. The cells were then immediately washed twice with PBS/0.1% bovine serum albumin (BSA) and centrifuged for 10 min at room temperature and 300×g. […] Before the analysis, propidium iodide, a fluorescent dye which specifically binds double-stranded DNA, was added to each sample in order to determine the viability of the analysed U937 cells. Damaged, propidium iodide-labelled cells were excluded from the analysis.

[4] = biological target: T4, recombinant human uPAR from CHO cells (human, UniProt Q03405 23-299, limits assumed); assay: solid phase ATF-ligand binding test, competition with ATF on immobilized recombinant uPAR
T4 construct: Magdolen et al. 1995; also called immobilized uPAR

[5] = biological target: T3, cell surface-associated uPA receptor …; assay: flow cytometry, competition with FITC-pro-uPA on U937 cells (section 2.1)
Procedure: as §1, §2

T1 sequence (Q03405 23-299 limits assumed): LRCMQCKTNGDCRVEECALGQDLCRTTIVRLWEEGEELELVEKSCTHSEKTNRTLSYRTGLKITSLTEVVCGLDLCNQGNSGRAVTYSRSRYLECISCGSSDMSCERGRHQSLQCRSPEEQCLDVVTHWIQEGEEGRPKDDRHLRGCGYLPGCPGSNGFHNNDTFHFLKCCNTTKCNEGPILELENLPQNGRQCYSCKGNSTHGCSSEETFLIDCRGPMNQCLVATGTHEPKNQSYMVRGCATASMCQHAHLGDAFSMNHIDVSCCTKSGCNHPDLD
T4 sequence (Q03405 23-299 limits assumed): as above
T2 sequence (Q03405 23-305): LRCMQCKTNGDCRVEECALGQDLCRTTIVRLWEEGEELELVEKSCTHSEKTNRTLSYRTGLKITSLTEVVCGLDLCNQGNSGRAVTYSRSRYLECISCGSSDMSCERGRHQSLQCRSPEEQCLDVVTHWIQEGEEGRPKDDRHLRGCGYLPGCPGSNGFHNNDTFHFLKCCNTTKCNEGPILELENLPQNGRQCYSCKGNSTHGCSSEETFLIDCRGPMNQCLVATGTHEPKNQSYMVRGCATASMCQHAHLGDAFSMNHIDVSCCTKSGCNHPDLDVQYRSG
T3 sequence (Q03405 23-305): as above

inhibition of the binding of ATF to uPAR / uPAR binding capacity (recombinant human uPAR): no significant binding capacity
Molecule: uPA18-30: linear peptide from the receptor binding region of uPA (TCVSNKYFSNIHW)

Molecule: uPA17-32: peptide from the receptor binding region of uPA (GTCVSNKYFSNIHWCN)
inhibition of the binding of ATF to uPAR / uPAR binding capacity (recombinant human uPAR): considerably reduced uPAR binding capacities

Molecule: cyclo^19,31uPA19-31: cyclic peptide which contains an intramolecular disulfide bond between the cysteine residues at positions 19 and 31 (CVSNKYFSNIHWC; disulfide 1-13)
stability of binding activity [1]: significantly more stable
inhibition of the binding of uPA to the uPA receptor (recombinant human uPAR; cyclic peptide with disulfide bond between Cys 19 and 31): still able to inhibit the binding of uPA to the uPA receptor

Molecule: uPA12-31: peptide from the receptor binding region of uPA (DCLNGGTCVSNKYFSNIHWC)
inhibition of the binding of ATF to uPAR / uPAR binding capacity (recombinant human uPAR): effectively inhibit the binding of ATF to uPAR

Molecule: uPA18-34: peptide from the receptor binding region of uPA (TCVSNKYFSNIHWCNCP)
inhibition of the binding of ATF to uPAR / uPAR binding capacity (recombinant human uPAR): considerably reduced uPAR binding capacities

inhibition of the binding of ATF to uPAR / uPAR binding capacity (recombinant human uPAR): does not bind at all to the uPAR
Molecule: uPA20-34: peptide from the receptor binding region of uPA (VSNKYFSNIHWCNCP)

Molecule: uPA10-32: peptide from the receptor binding region of uPA, amino acids 10-32 (NCDCLNGGTCVSNKYFSNIHWCN)
inhibition of the binding of ATF to uPAR / uPAR binding capacity (recombinant human uPAR): effectively inhibit the binding of ATF to uPAR

Molecule: uPA14-32: peptide having the amino acids 14 to 32 of uPA (LNGGTCVSNKYFSNIHWCN) [reference compound]
inhibition of the binding of ATF to uPAR / uPAR binding capacity (recombinant human uPAR): effectively inhibit the binding of ATF to uPAR

inhibition of the binding of ATF to uPAR / uPAR binding capacity (recombinant human uPAR): no significant binding capacity
Molecule: uPA20-30: linear peptide from the receptor binding region of uPA (VSNKYFSNIHW)

inhibition of the binding of ATF to uPAR / uPAR binding capacity (recombinant human uPAR): no significant binding capacity
Molecule: uPA20-32: linear peptide from the receptor binding region of uPA (VSNKYFSNIHWCN)

IC50 [2]: ~3.2 µM
molar excess resulting in a 50% inhibition of the binding of uPA ([2]; U937 cells, 16 ng FITC-conjugated pro-uPA, 45 min, room temperature): approximately 3,000 molar excess
higher affinity to uPAR compared to the two other peptides ([2]; versus uPA12-32 [C19A] and clone 20 peptide): 4- to 5 fold
Molecule: CC[C@H](C)[C@H](NC(=O)[C@H](CC(N)=O)NC(=O)[C@H](CO)NC(=O)[C@H](Cc1ccccc1)NC(=O)[C@H](Cc1ccc(O)cc1)NC(=O)[C@H](CCCCN)NC(=O)[C@H](CC(N)=O)NC(=O)[C@H](CO)NC(=O)[C@@H](NC(=O)[C@H](CS)NC(=O)[C@@H](NC(=O)CNC(=O)CN)[C@@H](C)O)C(C)C)C(=O)N[C@@H](Cc1c[nH]cn1)C(=O)N[C@@H](Cc1c[nH]c2ccccc12)C(=O)N[C@@H](CS)C(=O)N[C@@H](CC(N)=O)C(=O)O [uPA16-32] (H-GGTCVSNKYFSNIHWCN-OH; N-terminus and C-terminus assumed)
inhibition of the binding of ATF to uPAR / uPAR binding capacity (recombinant human uPAR): effectively inhibit the binding of ATF to uPAR

molar excess for 50% inhibition of the binding of uPA [3]: ~12000 fold molar excess
Molecule: AEPMPHSLNFSQYLWYT [clone 20-peptide AEPMPHSLNFSQYLWYT]

Molecule: TCVSNKYFSNIHW (peptide, UniProt P00749 38-50, looked up, range 18-30) [uPA18-30]
binding result [4]: no binding (tested: 15 µg synthetic peptide per ml)

Molecule: VSNKYFSNIHWCN (peptide, UniProt P00749 40-52, looked up, range 40-52) [uPA20-32]
binding result [4]: no binding (tested: 15 µg synthetic peptide per ml)

molar excess for 50% inhibition of the binding of uPA [3]: ~3000 fold molar excess
Molecule: GGTCVSNKYFSNIHWCN (peptide, UniProt P00749 36-52, looked up, range 16-32) [uPA16-32]

IC50 [5]: ~800 nM
Molecule: CVSNKYFSNIHWC (Linear form) [linear peptide uPA19-31]

Molecule: VSNKYFSNIHWCNCP (peptide, UniProt P00749 40-54, looked up, range 40-54) [uPA20-34]
binding result [4]: no binding (tested: 15 µg synthetic peptide per ml)

Reference: patent US6528619B1, “Inhibitors for urokinase receptor” (Roche Diagnostics GmbH, priority 1997, dated 2003)
